Publication PMC6887548 (Nature, 2019)

T1: Mcm2 (yeast, UniProt P29469)
T1 sequence: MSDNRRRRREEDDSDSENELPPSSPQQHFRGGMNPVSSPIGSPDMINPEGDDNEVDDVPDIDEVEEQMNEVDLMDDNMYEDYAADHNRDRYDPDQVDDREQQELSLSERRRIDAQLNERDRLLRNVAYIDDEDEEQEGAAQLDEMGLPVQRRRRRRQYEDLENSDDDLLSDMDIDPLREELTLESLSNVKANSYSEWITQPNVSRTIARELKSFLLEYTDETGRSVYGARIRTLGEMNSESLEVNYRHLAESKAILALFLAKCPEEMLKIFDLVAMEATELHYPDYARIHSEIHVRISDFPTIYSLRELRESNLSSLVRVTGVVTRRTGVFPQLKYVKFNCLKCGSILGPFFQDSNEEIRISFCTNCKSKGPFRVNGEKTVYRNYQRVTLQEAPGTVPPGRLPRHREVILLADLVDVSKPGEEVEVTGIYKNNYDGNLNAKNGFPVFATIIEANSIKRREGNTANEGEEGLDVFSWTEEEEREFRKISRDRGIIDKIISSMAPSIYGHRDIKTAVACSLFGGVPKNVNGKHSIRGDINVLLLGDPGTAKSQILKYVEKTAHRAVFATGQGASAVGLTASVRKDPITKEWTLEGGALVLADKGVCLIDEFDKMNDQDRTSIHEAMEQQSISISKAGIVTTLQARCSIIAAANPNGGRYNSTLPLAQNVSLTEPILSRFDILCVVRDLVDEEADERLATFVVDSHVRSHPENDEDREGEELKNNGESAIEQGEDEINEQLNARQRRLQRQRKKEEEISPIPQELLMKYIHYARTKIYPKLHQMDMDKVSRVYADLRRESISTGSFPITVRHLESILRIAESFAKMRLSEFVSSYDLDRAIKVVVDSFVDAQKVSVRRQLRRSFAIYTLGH

T2: Mcm5 (yeast, UniProt P29496)
T2 sequence: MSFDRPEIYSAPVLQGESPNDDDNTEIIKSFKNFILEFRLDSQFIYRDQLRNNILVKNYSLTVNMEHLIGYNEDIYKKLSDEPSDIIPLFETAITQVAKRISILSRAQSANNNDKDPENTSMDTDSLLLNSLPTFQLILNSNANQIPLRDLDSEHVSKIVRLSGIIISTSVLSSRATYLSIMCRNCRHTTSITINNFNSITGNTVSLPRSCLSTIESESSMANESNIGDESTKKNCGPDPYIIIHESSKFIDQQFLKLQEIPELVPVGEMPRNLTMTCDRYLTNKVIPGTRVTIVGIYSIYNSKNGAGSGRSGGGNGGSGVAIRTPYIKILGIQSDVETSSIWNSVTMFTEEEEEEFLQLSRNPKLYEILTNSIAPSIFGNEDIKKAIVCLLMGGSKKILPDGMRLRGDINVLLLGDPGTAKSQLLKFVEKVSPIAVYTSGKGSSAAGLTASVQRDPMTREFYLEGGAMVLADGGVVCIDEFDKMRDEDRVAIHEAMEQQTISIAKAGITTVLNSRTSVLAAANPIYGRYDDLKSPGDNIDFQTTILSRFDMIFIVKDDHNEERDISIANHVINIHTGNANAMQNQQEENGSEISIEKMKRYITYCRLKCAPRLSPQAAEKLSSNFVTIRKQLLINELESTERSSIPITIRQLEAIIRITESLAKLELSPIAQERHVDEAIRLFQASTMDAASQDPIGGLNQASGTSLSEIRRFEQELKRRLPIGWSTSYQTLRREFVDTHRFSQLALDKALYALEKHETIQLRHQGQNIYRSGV

B1: Orc6 (natural protein)
chain: MSMQQVQHCVAEVLRLDPQEKPDWSSGYLKKLTNATSILYNTSLNKVMLKQDEEVARCHICAYIASQKMNEKHMPDLCYYIDSIPLEPKKAKHLMNLFRQSLSNSSPMKQFAWTPSPKKNKRSPVKNGGRFTSSDPKELRNQLFGTPTKVRKSQNNDSFVIPELPPMQTNESPSITRRKLAFEEDEDEDEEEPGNDGLSLKSHSNKSITGTRNVDSDEYENHESDPTSEEEPLGVQESRSGRTKQNKAVGKPQSELKTAKALRKRGRIPNSLLVKKYCKMTTEEIIRLCNDFELPREVAYKIVDEYNINASRLVCPWQLVCGLVLNCTFIVFNERRRKDPRIDHFIVSKMCSLMLTSKVDDVIECVKLVKELIIGEKWFRDLQIRYDDFDGIRYDEIIFRKLGSMLQTTNILVTDDQYNIWKKRIEMDLALTEPL
B2: Cdc6 (natural protein)
chain: MSAIPITPTKRIRRNLFDDAPATPPRPLKRKKLQFTDVTPESSPEKLQFGSQSIFLRTKALLQKSSELVNLNSSDGALPARTAEYEQVMNFLAKAISEHRSDSLYITGPPGTGKTAQLDMIIRQKFQSLPLSLSTPRSKDVLRHTNPNLQNLSWFELPDGRLESVAVTSINCISLGEPSSIFQKIFDSFQDLNGPTLQIKNMQHLQKFLEPYHKKTTFVVVLDEMDRLLHANTSETQSVRTILELFLLAKLPTVSFVLIGMANSLDMKDRFLSRLNLDRGLLPQTIVFQPYTAEQMYEIVIQKMSSLPTIIFQPMAIKFAAKKCAGNTGDLRKLFDVLRGSIEIYELEKRFLLSPTRGSLNSAQVPLTPTTSPVKKSYPEPQGKIGLNYIAKVFSKFVNNNSTRTRIAKLNIQQKLILCTIIQSLKLNSDATIDESFDHYIKAITKTDTLAPLQRNEFLEICTILETCGLVSIKKTKCKGKTKRFVDKIDVDLDMREFYDEMTKISILKPFLH

Experiments:
Mcm2 = target: T1, Mcm2; test: cryo-EM structure
Mcm5 = target: T2, Mcm5; test: cryo-EM structure
[1] = target: origin recognition complex (ORC) (yeast, UniProt P54784;P32833;P54790;P54791;P50874;P38826); test: cryo-EM 2D class averages

Binder | binding result (Mcm2) | binding result (Mcm5) | binding result [1]
B1 | binds | binds | 
B2 |  |  | binds
